Results on 6 molecules are retold here after paper PMC9890960, “Exploiting photosynthesis-driven P450 activity to produce indican in tobacco chloroplasts” (Frontiers in Plant Science, 2023).

For series [1], the target named is T1, IsiB^6803 (Synechocystis sp. PCC 6803, UniProt P27319).
T1 construct: gene from colony PCR, pET14b, E. coli BL21(DE3), HisTrap purified; apoprotein for ITC
T1 sequence (P27319 1-170): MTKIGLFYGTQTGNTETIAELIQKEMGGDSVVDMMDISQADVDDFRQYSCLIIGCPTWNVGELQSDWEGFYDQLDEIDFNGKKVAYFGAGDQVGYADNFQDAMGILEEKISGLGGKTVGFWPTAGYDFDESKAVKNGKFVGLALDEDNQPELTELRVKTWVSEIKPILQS
Briefly: isothermal titration calorimetry. It is filed as binding. The conditions noted are these: read-out: affinities. In general terms: ITC needs no label: the signal is the heat of the interaction.

Series [2] concerns the target T2, HsCPR^62-241 (Homo sapiens, UniProt P16435).
T2 construct: gene POR; soluble flavodoxin-like (FMN) domain, residues 62-241, pET14b, E. coli BL21(DE3), HisTrap purified; apoprotein for ITC
T2 sequence (P16435 62-241): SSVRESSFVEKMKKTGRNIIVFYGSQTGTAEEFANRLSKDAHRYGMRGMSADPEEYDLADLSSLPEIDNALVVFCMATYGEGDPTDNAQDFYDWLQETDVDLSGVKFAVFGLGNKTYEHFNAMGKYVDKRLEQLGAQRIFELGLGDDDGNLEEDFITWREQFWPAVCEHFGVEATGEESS
Briefly: isothermal titration calorimetry. Type of series: binding. The conditions noted are these: read-out: affinities.

Series [3] has as its target T3, tnaA (Escherichia coli, UniProt P0A853).
T3 construct: synthetic gene, N-terminal chloroplast transit peptide (Arabidopsis Fd2); transient expression in Nicotiana benthamiana chloroplasts
Nature of the series: indole accumulation in infiltrated N. benthamiana leaves, UPLC-UV. Also noted: species or system Nicotiana benthamiana leaves. The conditions noted are these: chloroplast-targeted; endogenous tryptophan.

The target in series [4] is T4, CYP2A6 (Homo sapiens, UniProt P11509).
T4 construct: N-terminal Arabidopsis Fd2 transit peptide fusion; transient expression in Nicotiana benthamiana chloroplasts; amplified from E. coli expression construct
T4 sequence (P11509 1-494): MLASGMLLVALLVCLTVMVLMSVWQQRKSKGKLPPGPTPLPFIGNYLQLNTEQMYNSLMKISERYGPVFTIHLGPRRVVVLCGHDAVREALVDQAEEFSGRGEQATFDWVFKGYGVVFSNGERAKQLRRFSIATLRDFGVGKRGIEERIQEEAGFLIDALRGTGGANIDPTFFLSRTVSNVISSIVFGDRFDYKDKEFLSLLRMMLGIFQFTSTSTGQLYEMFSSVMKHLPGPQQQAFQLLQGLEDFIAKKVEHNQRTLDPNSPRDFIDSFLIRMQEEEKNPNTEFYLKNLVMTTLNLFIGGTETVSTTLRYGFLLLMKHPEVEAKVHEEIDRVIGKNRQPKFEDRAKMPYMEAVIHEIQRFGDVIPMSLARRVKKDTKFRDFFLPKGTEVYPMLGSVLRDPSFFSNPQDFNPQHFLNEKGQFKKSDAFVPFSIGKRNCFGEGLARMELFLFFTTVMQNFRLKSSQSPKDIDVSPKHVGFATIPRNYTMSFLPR
Briefly: indican formation in infiltrated N. benthamiana leaves, LC-MS. The conditions noted are these: co-expressed with tnaA; chloroplast-targeted; product glucosylated to indican.

In series [5] the target is T5, CYP2E1 (Homo sapiens, UniProt P05181).
T5 construct: N-terminal Arabidopsis Fd2 transit peptide fusion; transient expression in Nicotiana benthamiana chloroplasts; amplified from E. coli expression construct
T5 sequence (P05181 whole entry, the tested form may be a part): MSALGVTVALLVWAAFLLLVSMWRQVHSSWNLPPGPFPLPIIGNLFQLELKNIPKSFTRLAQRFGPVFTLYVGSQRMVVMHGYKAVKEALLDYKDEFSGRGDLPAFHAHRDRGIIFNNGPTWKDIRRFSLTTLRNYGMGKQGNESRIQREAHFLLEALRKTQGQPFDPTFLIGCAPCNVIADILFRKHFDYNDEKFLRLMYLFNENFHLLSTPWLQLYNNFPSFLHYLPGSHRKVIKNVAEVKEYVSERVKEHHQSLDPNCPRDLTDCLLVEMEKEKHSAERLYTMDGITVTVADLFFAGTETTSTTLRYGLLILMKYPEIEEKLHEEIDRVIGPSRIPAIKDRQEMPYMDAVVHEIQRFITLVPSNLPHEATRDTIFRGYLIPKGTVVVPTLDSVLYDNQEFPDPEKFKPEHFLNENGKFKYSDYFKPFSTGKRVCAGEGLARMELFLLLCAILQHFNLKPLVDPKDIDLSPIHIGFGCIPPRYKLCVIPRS
The series is described as above. The conditions noted are these: co-expressed with tnaA; chloroplast-targeted; product glucosylated to indican.

Series [6] has as its target T6, spinach FNR (spinach) (UniProt P00455).
T6 sequence: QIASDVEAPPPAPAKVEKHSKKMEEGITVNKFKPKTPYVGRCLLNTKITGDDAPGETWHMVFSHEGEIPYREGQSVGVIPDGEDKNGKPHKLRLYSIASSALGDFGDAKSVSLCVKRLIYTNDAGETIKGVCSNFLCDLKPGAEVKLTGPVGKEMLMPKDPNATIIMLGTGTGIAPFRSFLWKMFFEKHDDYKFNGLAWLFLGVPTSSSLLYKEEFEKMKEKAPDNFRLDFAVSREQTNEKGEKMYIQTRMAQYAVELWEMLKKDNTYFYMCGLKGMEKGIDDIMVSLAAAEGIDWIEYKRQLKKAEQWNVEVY

For series [7], the target named is T6, spinach FNR (spinach). This is another data set of the same source.

T3 sequence (P0A853 whole entry): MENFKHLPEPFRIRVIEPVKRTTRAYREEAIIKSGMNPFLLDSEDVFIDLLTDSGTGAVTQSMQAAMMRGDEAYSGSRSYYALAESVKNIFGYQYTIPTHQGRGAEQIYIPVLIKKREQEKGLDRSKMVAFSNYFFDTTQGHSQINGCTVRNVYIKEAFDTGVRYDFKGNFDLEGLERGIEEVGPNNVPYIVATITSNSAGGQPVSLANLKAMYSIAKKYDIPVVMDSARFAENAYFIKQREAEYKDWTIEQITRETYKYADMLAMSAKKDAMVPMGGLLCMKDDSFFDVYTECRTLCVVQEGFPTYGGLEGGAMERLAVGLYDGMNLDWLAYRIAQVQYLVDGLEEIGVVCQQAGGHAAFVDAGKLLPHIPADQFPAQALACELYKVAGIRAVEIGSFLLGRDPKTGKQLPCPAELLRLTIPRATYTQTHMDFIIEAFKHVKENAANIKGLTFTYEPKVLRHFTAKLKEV

As to `Cc1cc2nc3c(=O)[nH]c(=O)nc-3n(C[C@H](O)[C@H](O)[C@H](O)COP(=O)(O)O)c2cc1C` [FMN], the figures for the Kd in series [1] and in series [2] were 2 nM and 25.7 nM, respectively.
Regarding `N[C@@H](Cc1c[nH]c2ccccc12)C(=O)O` [tryptophan], the “indole accumulation in infiltrated N. benthamiana leaves, UPLC-UV” value in series [3] is recorded as “Expression of tnaA alone led to detectable indole accumulation in leaf samples”.
As to `c1ccc2[nH]ccc2c1` [indole], the “indican formation in infiltrated N. benthamiana leaves, LC-MS” value in series [4] and in series [5] was “accumulation was considerably higher when any P450 was co-expressed with tnaA” each time.
For the molecule “AtFd1 (from UniProt O04090 53-148) (natural protein)”, in series [6], the KM of the electron carrier in NADPH-dependent reduction by FNR (40 nM spinach FNR, carrier 1-100 µM, read by cytochrome c reduction, Michaelis-Menten fit) is 21.7 µM and the Vmax of NADPH-dependent reduction of the electron carrier by FNR (40 nM spinach FNR, carrier 1-100 µM, read by cytochrome c reduction, Michaelis-Menten fit) (µmol cyt c µmol FNR^-1 s^-1) was found to be 118. In series [7], the Vmax/KM of NADPH-dependent reduction of the electron carrier by FNR was 5.4; the decrease of light-driven coumarin 7-hydroxylation by CYP2A B49 in thylakoids (10 µM redox partner) on adding 0.6 µM FNR and 1.6 mM NADP+ worked out at 80%.

B1: HsCPR^62-241 (domain or fragment)
chain: T2 sequence (P16435 62-241)
On to B1, for which, in series [6], the KM of the electron carrier in NADPH-dependent reduction by FNR (40 nM spinach FNR, carrier 1-100 µM, read by cytochrome c reduction, Michaelis-Menten fit) was determined as 9.2 µM and the Vmax of NADPH-dependent reduction of the electron carrier by FNR (40 nM spinach FNR, carrier 1-100 µM, read by cytochrome c reduction, Michaelis-Menten fit) (µmol cyt c µmol FNR^-1 s^-1) came to 125. Further, the Vmax/KM of NADPH-dependent reduction of the electron carrier by FNR in series [7] was found to be 13.6.

B2: IsiB^6803 (natural protein)
chain: T1 sequence (P27319 1-170)
For B2, in series [6], the KM of the electron carrier in NADPH-dependent reduction by FNR (40 nM spinach FNR, carrier 1-100 µM, read by cytochrome c reduction, Michaelis-Menten fit) stood at 17.7 µM and the Vmax of NADPH-dependent reduction of the electron carrier by FNR (40 nM spinach FNR, carrier 1-100 µM, read by cytochrome c reduction, Michaelis-Menten fit) (µmol cyt c µmol FNR^-1 s^-1) was 10.
